# Test results as given in publication doi:10.1101/2025.09.11.675134, “Biodistribution-Driven Discovery Identifies a Glycosidase-Cleavable Linker to Reprogram Radiotheranostics” (bioRxiv, 2025).
# Where two headings read alike, the source gives them in different places.
# Assay: Ex vivo biodistribution of 225Ac-labeled variants in AR42J tumor-bearing mice
# Conditions: athymic nu/nu, mouse, total radioactivity
# Protocol: Prior to conducting targeted alpha-particle therapy studies using three ^225Ac-labeled variants (Fig. S17) in AR42J xenograft-bearing mice, we first assessed their in vivo pharmacokinetics through ex vivo biodistribution studies at 24 h post-injection (Fig. 5A; Tables S4). […]
# For studies involving three variants (DOTA -TATE, DOTA-MVK(ε)-TATE, and DOTA-β-Gal-TATE), AR42J cells (5 × 10^6 cells per mouse) were subcutaneously inoculated into the right shoulder of the mice. Tumors were allowed to grow for 3 weeks, reaching a volume of 100 –200 mm³ before being used in subsequent experiments. […]
# All samples […]
# were weighed and counted on a gamma counter (2480 Wizard 3, Perkin Elmer Inc., Waltham, MA, USA). Results are presented as percentage of injected activity per gram (%IA/g) and mean values ± standard deviations. […]
# Prior to conducting alpha particle therapy, biodistribution studies with 225Ac-labeled DOTA - TATE variants (117 – 163 kBq, 1 μg) were performed at 24 hours and 4 days post -injection in athymic nu/nu mice bearing AR42J tumors (n = 4 – 5). Mice were euthanized by CO 2 asphyxiation, and 10 tissues, including tumors, were collected. All samples were weighed and counted on a gamma counter after equilibration for 12 hours. Results are presented as %IA/g and mean values ± standard deviations.
# [1] = iv, 1 ug, 225Ac-labeled, AR42J tumor-bearing mice, 24 h post-injection, ex vivo, mean (± SD), n = 4–5, read-out: Kidney uptake
# [2] = iv, 1 ug, 225Ac-labeled, AR42J tumor-bearing mice, 24 h post-injection, ex vivo, mean (± SD), n = 4–5, read-out: Liver uptake
# [3] = iv, 1 ug, 225Ac-labeled, AR42J tumor-bearing mice, 24 h post-injection, ex vivo, mean (± SD), n = 4–5, read-out: Tumor uptake
# [4] = iv, 1 ug, 225Ac-labeled, AR42J tumor-bearing mice, 24 h post-injection, ex vivo, mean, n = 4–5, read-out: Femur uptake
# [5] = iv, 1 ug, 225Ac-labeled, AR42J tumor-bearing mice, 24 h post-injection, ex vivo, mean, n = 4–5, read-out: Intestine uptake
# [6] = iv, 1 ug, 225Ac-labeled, AR42J tumor-bearing mice, 24 h post-injection, ex vivo, mean, n = 4–5, read-out: Spleen uptake
# [7] = iv, 1 ug, 225Ac-labeled, AR42J tumor-bearing mice, 24 h post-injection, i.v. 1 μg (117–163 kBq), ex vivo gamma counting, mean, n = 4–5, read-out: Blood uptake
# [8] = iv, 1 ug, 225Ac-labeled, AR42J tumor-bearing mice, 4 days post-injection, ex vivo, mean, n = 4–5, read-out: Blood uptake
# [9] = iv, 1 ug, 225Ac-labeled, AR42J tumor-bearing mice, 4 days post-injection, ex vivo, mean, n = 4–5, read-out: Femur uptake
# [10] = iv, 1 ug, 225Ac-labeled, AR42J tumor-bearing mice, 4 days post-injection, ex vivo, mean, n = 4–5, read-out: Intestine uptake
# [11] = iv, 1 ug, 225Ac-labeled, AR42J tumor-bearing mice, 4 days post-injection, ex vivo, mean, n = 4–5, read-out: Kidney uptake
# [12] = iv, 1 ug, 225Ac-labeled, AR42J tumor-bearing mice, 4 days post-injection, ex vivo, mean, n = 4–5, read-out: Liver uptake
# [13] = iv, 1 ug, 225Ac-labeled, AR42J tumor-bearing mice, 4 days post-injection, ex vivo, mean, n = 4–5, read-out: Muscle uptake
# [14] = iv, 1 ug, 225Ac-labeled, AR42J tumor-bearing mice, 4 days post-injection, ex vivo, mean, n = 4–5, read-out: Spleen uptake
# [15] = 225Ac-labeled, AR42J tumor-bearing mice, 24 h post-injection, ex vivo, mean, n = 4–5, read-out: Heart uptake
# [16] = 225Ac-labeled, AR42J tumor-bearing mice, 24 h post-injection, ex vivo, mean, n = 4–5, read-out: Lung uptake
# [17] = 225Ac-labeled, AR42J tumor-bearing mice, 24 h post-injection, ex vivo, mean, n = 4–5, read-out: Muscle uptake
# [18] = 225Ac-labeled, AR42J tumor-bearing mice, 4 days post-injection, ex vivo, mean, n = 4–5, read-out: Heart uptake
# [19] = 225Ac-labeled, AR42J tumor-bearing mice, 4 days post-injection, ex vivo, mean, n = 4–5, read-out: Lung uptake
smiles,measurement,setting,value
"C[C@@H](O)[C@H](NC(=O)[C@@H]1CSSC[C@H](NC(=O)[C@@H](Cc2ccccc2)NC(=O)CN2CCN(CC(=O)O)CCN(CC(=O)O)CCN(CC(=O)O)CC2)C(=O)N[C@@H](Cc2ccc(O)cc2)C(=O)N[C@H](Cc2c[nH]c3ccccc23)C(=O)N[C@@H](CCCCN)C(=O)N[C@@H]([C@@H](C)O)C(=O)N1)C(=O)O [^225Ac-DOTA-TATE, metal not drawn, reference compound]",tissue uptake at 24 h,[1],4.19 ± 0.28 %ID/g
same,tissue uptake at 24 h,[2],0.29 ± 0.02 %ID/g
same,tissue uptake at 24 h,[3],3.4 ± 0.34 %ID/g
same,tissue uptake at 24 h,[4],0.2 %ID/g
same,tissue uptake at 24 h,[5],0.09 %ID/g
same,tissue uptake at 24 h,[6],0.16 %ID/g
same,tissue uptake at 24 h,[7],0.03 %ID/g
same,tissue uptake at 96 h,[8],0.04 %ID/g
same,tissue uptake at 96 h,[9],0.41 %ID/g
same,tissue uptake at 96 h,[10],0.1 %ID/g
same,tissue uptake at 96 h,[11],1.02 %ID/g
same,tissue uptake at 96 h,[12],0.65 %ID/g
same,tissue uptake at 96 h,[13],0.16 %ID/g
same,tissue uptake at 96 h,[14],0.27 %ID/g
same,tissue uptake at 96 h,,1.14 ± 0.37 %ID/g
same,tissue uptake at 24 h,[15],0.06 %ID/g
same,tissue uptake at 24 h,[16],0.14 %ID/g
same,tissue uptake at 24 h,[17],0.1 %ID/g
same,tissue uptake at 96 h,[18],0.14 %ID/g
same,tissue uptake at 96 h,[19],0.16 %ID/g
"C[C@@H](O)[C@H](NC(=O)[C@@H]1CSSC[C@H](NC(=O)[C@@H](Cc2ccccc2)NC(=O)CCCC(=O)Nc2cc(COC(=O)N(C)CCNC(=O)CN3CCN(CC(=O)O)CCN(CC(=O)O)CCN(CC(=O)O)CC3)ccc2O[C@@H]2O[C@H](CO)[C@H](O)[C@H](O)[C@H]2O)C(=O)N[C@@H](Cc2ccc(O)cc2)C(=O)N[C@H](Cc2c[nH]c3ccccc23)C(=O)N[C@@H](CCCCN)C(=O)N[C@@H]([C@@H](C)O)C(=O)N1)C(=O)O [^225Ac-DOTA-β-Gal-TATE, metal not drawn]",tissue uptake at 24 h,[1],0.89 ± 0.08 %ID/g
same,tissue uptake at 24 h,[2],0.89 ± 0.49 %ID/g
same,tissue uptake at 24 h,[3],8.22 ± 1.84 %ID/g
same,tissue uptake at 24 h,[4],0.48 %ID/g
same,tissue uptake at 24 h,[5],0.17 %ID/g
same,tissue uptake at 24 h,[6],0.47 %ID/g
same,tissue uptake at 24 h,[7],0.04 %ID/g
same,tissue uptake at 96 h,[8],0.03 %ID/g
same,tissue uptake at 96 h,[9],0.42 %ID/g
same,tissue uptake at 96 h,[10],0.09 %ID/g
same,tissue uptake at 96 h,[11],0.28 %ID/g
same,tissue uptake at 96 h,[12],0.5 %ID/g
same,tissue uptake at 96 h,[13],0.22 %ID/g
same,tissue uptake at 96 h,[14],0.22 %ID/g
same,tissue uptake at 24 h,[15],0.1 %ID/g
same,tissue uptake at 24 h,[16],0.1 %ID/g
same,tissue uptake at 24 h,[17],0.1 %ID/g
same,tissue uptake at 96 h,"225Ac-labeled, AR42J tumor-bearing mice, 4 days post-injection, ex vivo, mean (± SD), n = 4–5, read-out: Tumor uptake",2.74 %ID/g
same,tissue uptake at 96 h,[18],0.13 %ID/g
same,tissue uptake at 96 h,[19],0.11 %ID/g
same,tissue to tissue ratio at 24 h,"225Ac-labeled, AR42J xenografts, 24 h post-injection, ex vivo, mean ± SD, n = 4, read-out: Tumor-to-kidney (T/K) ratio",9.12 ± 1.31
"CSCC[C@H](NC(=O)CN1CCN(CC(=O)O)CCN(CC(=O)O)CCN(CC(=O)O)CC1)C(=O)N[C@H](C(=O)N[C@@H](CCCCNC(=O)CCCC(=O)N[C@H](Cc1ccccc1)C(=O)N[C@H]1CSSC[C@@H](C(=O)N[C@H](C(=O)O)[C@@H](C)O)NC(=O)[C@H]([C@@H](C)O)NC(=O)[C@H](CCCCN)NC(=O)[C@@H](Cc2c[nH]c3ccccc23)NC(=O)[C@H](Cc2ccc(O)cc2)NC1=O)C(=O)O)C(C)C [^225Ac-DOTA-MVK(ε)-TATE, metal not drawn]",tissue uptake at 24 h,[1],1.27 ± 0.25 %ID/g
same,tissue uptake at 24 h,[2],0.61 ± 0.06 %ID/g
same,tissue uptake at 24 h,[3],3.83 ± 0.51 %ID/g
same,tissue uptake at 24 h,[4],0.33 %ID/g
same,tissue uptake at 24 h,[5],0.11 %ID/g
same,tissue uptake at 24 h,[6],0.32 %ID/g
same,tissue uptake at 24 h,[7],0.03 %ID/g
same,tissue uptake at 96 h,[8],0.03 %ID/g
same,tissue uptake at 96 h,[9],0.32 %ID/g
same,tissue uptake at 96 h,[10],0.07 %ID/g
same,tissue uptake at 96 h,[11],0.43 %ID/g
same,tissue uptake at 96 h,[12],0.42 %ID/g
same,tissue uptake at 96 h,[13],0.15 %ID/g
same,tissue uptake at 96 h,[14],0.19 %ID/g
same,tissue to tissue ratio at 24 h,,3.05 ± 0.37
same,tissue to tissue ratio at 96 h,,5.72 ± 0.91
same,tissue uptake at 96 h,,2.41 ± 0.22 %ID/g
same,tissue uptake at 24 h,[15],0.08 %ID/g
same,tissue uptake at 24 h,[16],0.14 %ID/g
same,tissue uptake at 24 h,[17],0.09 %ID/g
same,tissue uptake at 96 h,[18],0.12 %ID/g
same,tissue uptake at 96 h,[19],0.11 %ID/g
